Data from the RNAGym collection of RNA variant scans (doi:10.1073/pnas.2313332121).

B1: TPR t1 (parent)
chain: GACCAAUCUGCCCUCAGAGCUCGAGAACAUCUUCGGAUGCAGAGGAGGCAGGCUUCGGUGGCGCGAUAGCGCCAACGUCCUCAACCUCCAAUGCAUCCCACCACAUGAUGAUGCCUGAAGAGCCUUGGUUUUUUG

Variants of: B1
Experiment: polymerase ribozyme fitness, log enrichment relative to wild type (log ratio); higher = more active; in vitro selection for triplet polymerase activity
Outline: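 Genotype fitness is the logarithm of its enrichment divided by wild-type enrichment, using inverse-variance-weighted averages of replicates. That logarithm is base 2. Enrichment was measured by Illumina sequencing of input and output libraries from one triplicate in vitro selection round, with frozen incubation at −7 °C, on PCR-built, transcribed mutant libraries of each subunit of a heterodimeric triplet polymerase ribozyme, retaining genotypes with ≥10 input reads and ≥1 read per output.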

Variant | polymerase ribozyme fitness (log ratio)
G63A C70A A95C | -3.3
G63A C73A A119C G120C | -1.42
G63A C73G | -4.71
G63A C79G | -3.65
G63A C79U | -1.07
G63A C79U A83G C123G | 0.0609
G63A C82G | -1.41
G63A C82G G117U C123G | -3.95
G63A C85A | -2.01
G63A C94A | -0.982
G63A C97U | -1.46
G63A C98G | -6.74
G63A C98U | -2.12
G63A C101A | -3.39
G63A C102U | -3.27
G63A C114A | -1.9
G63A C115U | -1.45
G63A C123U | 0.883
G63A G117U | -3.18
G63A G127U | -1.36
G63A G135U | -1.49

Variant | polymerase ribozyme fitness (log ratio)
G63A U81A | -2.01
G63A U96G U112A | -1.56
G63A U106A U133G | -1.47
G63A U112A C114G G122U | -1.75
G63A U112G | -1.1
G63A U116C G127U U133A | -5.28
G63A U129G | -0.825
G63A U132C | -1.92
G63C | -0.722
G63C A84U G117A | -2.46
G63C A90G G93U A118G | -1.31
G63C A91U C114A A118G U132A | -4.5
G63C A100U G110A C115G | -6.05
G63C A108U A121U G122A | -7.45
G63C C76U U87G U116A G120A | -4.12
G63C C80U G110A | -2.48
G63C C85G | -1.96
G63C C89U C102U A111C C115U | -6.78
G63C C97G | -4.59
G63C C101U C102U G120C | -2.17
G63C C101U G127U | -1.08

Variant | polymerase ribozyme fitness (log ratio)
G63C C102A U112A | -1.64
G63C C124U | 0.611
G63C G107A | -4.87
G63C G110A | -1.89
G63C G110U C123U G128C | -5.59
G63C G113A | -2.11
G63C G120C U131A | 0.5
G63C G122A | -0.479
G63C G127U | -1.97
G63C U78A | -0.719
G63C U116A | -3.47
G63C U125G | -2.2
G63C U126A G128U U133A | -3.25
G63C U130A | -0.551
G63U | -1.18
G63U A83U C101G | -2.97
G63U A90U G113C | -3.41
G63U A91C U92G | -4.45
G63U A103G | -5.82
G63U A111C | -1.67
G63U A121C | 0.0306

Variant | polymerase ribozyme fitness (log ratio)
G63U A121U | 0.749
G63U C70A | -0.179
G63U C70G A118G U125A | -1.35
G63U C70U | -0.91
G63U C72U C115A | -1.23
G63U C73U | -2.45
G63U C85A C88U C101G C115A C124A U129C | -2.52
G63U C85U | -2.96
G63U C85U G110U | -4.39
G63U C89A | -2.53
G63U C94A A121C | -0.515
G63U C97U U112C A121C | 0.0312
G63U C101A | -2.28
G63U C104A | -2.5
G63U C104A U133A | -3.31
G63U C114G G117U | -5.98
G63U G93A C124A | 0.423
G63U G93U C124G | -0.616
G63U G117U | -2.02
G63U G117U U129G | -6.2
